Measured values taken from the supplement of paper PMC12042874.
± gives the uncertainty stated by the source.

Test: amyloid nucleation score (Sup35N fusion, yeast selection) (log enrichment); library NNK2; higher = more nucleation; inactive = no reads after selection
How it was run: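 Using DiMSum, nucleation scores were taken as the log enrichment of output over input reads, centred on the mode score of non-aggregating sequences. The input and output reads came from Illumina sequencing of plasmid inserts, with sequences under 100 input reads excluded. The yeast were psi-negative, expressed Sup35N fused to peptides of 20 random codons, were induced with 100 μM copper sulfate for 24 hours, and were grown 7 days at 30°C on medium lacking adenine and uracil.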

Substance | amyloid nucleation score
VNYSYVATSYRLVAILSNVW | -1.36 ± 0.62
VPEFCVSSCNSVNLRASE | 1.78 ± 0.14
VPGRYFSQELVFTLFLGMAK | -1.43 ± 0.61
VPKVKNLDWSSELAKFKLEV | 2.95 ± 0.1
VPRSQIVVGIMFP | -1.06 ± 0.55
VPSHRPFVYHRKDLGFLGSV | 0.269 ± 0.6
VPTLCLVLDRLLDSNR | -1.39 ± 0.62
VPVTGSNLPAVCKGHGVEYG | -0.045 ± 0.41
VPWLNGRVVASRKDKTRSSR | 0.009 ± 0.76
VQKRRGFILTSFR | -0.173 ± 0.39
VQMGRPWTGALMVSYMIVNH | 6.18 ± 0.063
VQVCKMICRFISLWGLLA | 0.006 ± 0.44
VRAQKRSWGQGSL | 1.23 ± 0.14
VRAYLQYR | 0.094 ± 0.74
VREVDILYYC | 0.418 ± 0.48
VRFTLYGCWGLMFFTMVGR | inactive
VRFYVCLFLRNEMKVGRMTW | 3.86 ± 0.064
VRILYGS | 6.06 ± 0.082
VRISAMVITV | -0.684 ± 0.55
VRIYTHWTRSYRPKFRSTWT | 0.641 ± 0.74
VRKLSRNLMICYKTVLSGDC | -0.105 ± 0.65
VRLLGYIWKLLPHVVNQKV | 0.31 ± 0.46
VRLTMQYGHVYPGCSLLPYV | 4.75 ± 0.049
VRMWRGE | 0.083 ± 0.49
VRNFYLYVMWPWVQEFY | 7.457 ± 0.061

Substance | amyloid nucleation score
VRQRNNWFTMVIVCVISVMA | 3.52 ± 0.13
VRRHADRGGVLAEISNEVVQ | 0.608 ± 0.24
VRTIF | inactive
VSAELWIQSSVTSAYIIWQL | 0.98 ± 0.81
VSCVCHYVNNFNPMLCNRKC | -0.064 ± 0.8
VSDDHFINCFYGQVSQRKVK | inactive
VSDRLTMFKSVRSVWMCWGQ | -0.146 ± 0.61
VSEANVTYINFFC | 4.36 ± 0.089
VSFWFVFFWMISTRSEMMDR | -1.08 ± 0.53
VSFYDVH | 0.011 ± 1.1
VSGLPN | inactive
VSGSSHVVKWVMKEGVIFI | inactive
VSHILINVSRGLRGS | -0.261 ± 0.8
VSIFMQRR | 2.76 ± 0.13
VSKKFIIVVRNREFSP | 4.43 ± 0.086
VSLIFQIRLRHRLTGAQMKR | 0.762 ± 0.37
VSMIVGSDNVPVSFETDVSV | 1.01 ± 0.39
VSNRLRLSFKRVPHHAGYRP | 2.76 ± 0.2
VSRDLEVH | -0.001 ± 0.31
VSTSYVTTIVF | -0.237 ± 0.41
VSVDGKLRFRPT | 0.313 ± 0.45
VSYSGNRYWCSFVNKKAGGN | 1.32 ± 0.27
VSYYIRVYF | 5.648 ± 0.054
VTCASWYYGKISGLYACYRL | 0.641 ± 0.34
VTDRNIRLDPVALKHASVYG | -0.368 ± 0.38

Substance | amyloid nucleation score
VTGIATTS | 0.44 ± 0.3
VTGTT | -0.01 ± 1
VTICIGVAFYVFCTSTSNCM | 5.242 ± 0.039
VTKILCSRTWGKSG | 0.325 ± 0.44
VTKSYITRSVFSVGNYSETS | -0.226 ± 1.1
VTKVLQFCSPSYLLYSRLNV | 0.709 ± 0.47
VTLIRSSRVATSCHGGTLFC | 3.45 ± 0.092
VTSGGLEWSRD | 3.11 ± 0.05
VTSNGKRTWHVAAAFGAPGE | 2.54 ± 0.12
VTVRAQY | -0.497 ± 0.45
VVDSTVGRADGTCGGVVGFA | 0.87 ± 0.41
VVDVVIGYWGRVMSDGCVAG | 0.816 ± 0.24
VVEFNVLHDDLEVQDKT | -1.16 ± 0.56
VVFRIVNRACVMYGVTGGND | -0.915 ± 0.63
VVILS | 1.28 ± 0.29
VVILTFKAVYTAKFYACCAV | -0.104 ± 0.45
VVKYFCDHI | 4.5 ± 0.07
VVNDIATLLRVMNEYYAESA | -0.531 ± 0.79
VVNKLF | inactive
VVPCWSVNKDSRSDRSD | -0.1 ± 1
VVRAVYGYQFYGIVL | 0.648 ± 0.25
VVRHLWMTKYCRFMFISTVY | -0.898 ± 0.34
VVRHSLKRL | -0.228 ± 1.1
VVRMRENKRNIL | inactive
VVRVLLVWMFLLTLWHHLVN | -0.158 ± 0.34

Substance | amyloid nucleation score
VVSSGLHHRLLLCRIEGA | 0.526 ± 0.26
VVSTSYIGGKKRSFCVRCGG | -0.73 ± 0.49
VVSVCLLGHNDKVLSYAQLC | 0.071 ± 0.51
VVVFMHV | 1.51 ± 0.32
VVVPDGFRNYEYGNSTLFVI | -0.99 ± 1.1
VVWVSITKWATRAVISHGDT | 0.617 ± 0.32
VVYLEIVTRGATGYLVCLPC | -0.437 ± 0.6
VVYRYRVRHCL | 0.725 ± 0.27
VWALKGMIYN | 0.33 ± 0.17
VWDNIVPPQLISRRS | -0.813 ± 1.1
VWLTKIIGPVRKLVKNTLGC | 5.542 ± 0.047
VWMHMSGSIIKSWFLVRCFS | -0.506 ± 0.38
VWQQS | 0.668 ± 0.49
VWYRLTDAVYKRLTFLDII | -0.416 ± 0.56
VYALTGMDKYGGLALYLSWR | 0.307 ± 0.44
VYAYRTEFQRW | 0.886 ± 0.47
VYCFNSRSNFHTLMLSSGYG | -0.594 ± 0.55
VYCVDIFCTESLVCPTQTWG | 6.055 ± 0.06
VYELCCLYMWLGHSNYAADM | 5.33 ± 0.044
VYGCGSCLNCVVCMERCG | 9.094 ± 0.048
VYKMIVSRVHC | -1.17 ± 1
VYLGIFRL | 2.76 ± 0.13
VYNLARSRSKAERVV | 0.201 ± 1
VYNWGGRLKP | 0.147 ± 0.49
VYPVSPIMKGV | 0.163 ± 0.49

Substance | amyloid nucleation score
VYTQYYNTKSKISYCFLRLI | inactive
VYTVVYGYNWISCDHFSWDT | 7.47 ± 0.08
VYVFDIVRLG | 0.465 ± 0.8
WCCPPHGRQP | 0.876 ± 0.43
WCEGHKSW | -0.817 ± 1
WCFCSLLCVSGCLRPDPELP | 1.28 ± 0.22
WCFFRVAFNW | 1.88 ± 0.17
WCFLT | -0.343 ± 1.1
WCIKANSMSRNVYVEEMGER | -0.143 ± 0.24
WDIIF | -1.45 ± 0.34
WDNDQHIQRNLY | inactive
WDSDRSYVLSLFADVPLAKC | 0.035 ± 1
WELHMI | -0.61 ± 1.1
WFDKFRMCEEFAYYFFLPQW | -0.856 ± 0.63
WFENNDESMGQEWNKHCTSV | 0.718 ± 0.24
WFHVITFFLGASCIMWTKTR | inactive
WFIILRLIYVYGTNCAVYMV | -0.003 ± 0.42
WFRKGHHVVT | 1.08 ± 0.41
WFSECCSMASIGHSDTMDGS | -0.567 ± 1.1
WGENARAESRTEEMLL | 1.81 ± 0.22
WHCVRVIQRSWCVKEGSKGC | 0.118 ± 0.45
WHENMSGTPKLASTNNGSKR | 2.61 ± 0.18
WHGPYYCGGCRTDIVCWNRA | 5.888 ± 0.05
WHSDSQTRRSSLSLLVCQID | 0.935 ± 0.66
WIILGTSSAVWRTHDYLA | 3.43 ± 0.06

Substance | amyloid nucleation score
WIMNKANNCKCFIEDTNWS | 7.352 ± 0.044
WKIQACVSYQQGAVRGVCVD | 0.139 ± 0.34
WLDSQWNLYLDLYHLYRSCR | 3.22 ± 0.12
WLLGMYVIRGRQSYNSKDVR | 3.38 ± 0.054
WLLVDGEH | 0.025 ± 0.45
WLMTYFNISSGFKSVTWVES | 3.69 ± 0.11
WLPNQVKGHLSFRMCSDIRH | 4.334 ± 0.035
WLPYTCNFVMTVSRYSSMRG | inactive
WLSTVVL | inactive
WLTEVY | -0.587 ± 0.79
WLVSSVSCQPMSQSSFVGGL | 5.498 ± 0.05
WLVTAMSMLVCLPGYESLYW | 1.98 ± 0.21
WLWIKLEPLICSNFCWVVLW | 0.537 ± 0.48
WLYYDGSFW | -0.429 ± 0.76
WMGIWYGCVWVFGMVGANNR | 2.2 ± 0.063
WMLCLDLKANKMCLMVISME | -1.32 ± 0.76
WMLNLDLLIFASLRGVVEGD | inactive
WMYTSRPNSSQTIRGWRATY | -0.046 ± 0.39
WNECVFGAPAFSRE | 3.11 ± 0.15
WNVFKLSGSSYV | -0.483 ± 0.31
WQCKLPSNYGFGTK | 0.11 ± 0.77
WQRLKLSEKLVGSAVPLKAG | 4.44 ± 0.11
WQRRIGKFCDKQWSFQMMVH | -0.021 ± 0.63
WRASK | 3.23 ± 0.057
WRCDLSNPTFAMYVDAVWAS | 1.16 ± 0.18

Substance | amyloid nucleation score
WRKRYEYTVRVGRSAKSTLM | 0.455 ± 0.37
WRNLDLK | -0.562 ± 1.1
WRRFRFLLPWSLRPMS | inactive
WRYGNDYTFLIMDGC | -0.511 ± 0.37
WSCNRNCSIFDR | -0.373 ± 0.45
WSDACSGCNFK | inactive
WSDSFTCDCGKLITTSSRLS | 2.02 ± 0.15
WSFLYE | -0.548 ± 0.33
WSGWSQGDGLVQGQVMRAFV | -0.284 ± 0.79
WSMFLLRMAPMRMLTTINFV | -0.504 ± 0.33
WSPYEEPR | 0.298 ± 0.35
WSRMLFGECRSGKLRLPMPR | 3.73 ± 0.099
WTCDCSLKVFCNM | 4.91 ± 0.056
WTPTVFVDMHPSNGLVDILY | -0.896 ± 0.61
WTTMRLFLDFMYTLDRVGST | -0.291 ± 1.1
WTVGRRELGCM | inactive
WTYGVTRLSSLCSAIDLSLG | -0.598 ± 1.1
WVGAVKFFRSVKRQMSIYLE | inactive
WVGLHVR | 0.525 ± 0.36
WVHGIESSRWRFGL | -0.474 ± 1.1
WVTIALYCNKLIVTVRGGIG | -0.029 ± 1.1
WVVRK | -1.76 ± 0.44
WWFLKLDGRLPKLWAFLTMG | -0.22 ± 0.23
WWNITTEAPIFLIFCFTRQG | 4.8 ± 0.068
WWTVKLLMSEVVFRWELEYI | 5.735 ± 0.04
